B1: CER5: Chimeric engulfment receptor: Tim4 binding, Tim4 transmembrane, TLR4 signaling; SEQ ID NO: 94 (protein)
chain: MSKGLLLLWLVTELWWLYLTPAASEDTIIGFLGQPVTLPCHYLSWSQSRNSMCWGKGSCPNSKCNAELLRTDGTRIISRKSTKYTLLGKVQFGEVSLTISNTNRGDSGVYCCRIEVPGWFNDVKKNVRLELRRATTTKKPTTTTRPTTTPYVTTTTPELLPTTVMTTSVLPTTTPPQTLATTAFSTAVTTCPSTTPGSFSQETTKGSAFTTESETLPASNHSQRSMMTISTDIAVLRPTGSNPGILPSTSQLTTQKTTLTTSESLQKTTKSHQINSRQTILIIACCVGFVLMVLLFLAFLKFYFHLMLLAGCIKYGRGENIYDAFVIYSSQDEDWVRNELVKNLEEGVPPFQLCLHYRDFIPGVAIAANIIHEGFHKSRKVIVVVSQHFIQSRWCIFEYEIAQTWQFLSSRAGIIFIVLQKVEKTLLRQQVELYRLLSRNTYLEWEDSVLGRHIFWRRLRKALLDGKSWNPEGTVGTGCNWQEATSI
modifications: CER5, amino acids 1-22 are signal peptide
B2: CER17: Chimeric engulfment receptor: Tim4 binding, Tim4 transmembrane, TLR3 signaling; SEQ ID NO: 112 (protein)
chain: MSKGLLLLWLVTELWWLYLTPAASEDTIIGFLGQPVTLPCHYLSWSQSRNSMCWGKGSCPNSKCNAELLRTDGTRIISRKSTKYTLLGKVQFGEVSLTISNTNRGDSGVYCCRIEVPGWFNDVKKNVRLELRRATTTKKPTTTTRPTTTPYVTTTTPELLPTTVMTTSVLPTTTPPQTLATTAFSTAVTTCPSTTPGSFSQETTKGSAFTTESETLPASNHSQRSMMTISTDIAVLRPTGSNPGILPSTSQLTTQKTTLTTSESLQKTTKSHQINSRQTILIIACCVGFVLMVLLFLAFLEGWRISFYWNVSVHRVLGFKEIDRQTEQFEYAAYIIHAYKDKDWVWEHFSSMEKEDQSLKFCLEERDFEAGVFELEAIVNSIKRSRKIIFVITHHLLKDPLCKRFKVHHAVQQAIEQNLDSIILVFLEEIPDYKLNHALCLRRGMFKSHCILNWPVQKERIGAFRHKLQVALGSKNSVH
modifications: CER17, amino acids 1-22 are signal peptide
B3: CER19: Chimeric engulfment receptor: Tim4 binding, Tim4 transmembrane, TLR5 signaling; SEQ ID NO: 95 (protein)
chain: MSKGLLLLWLVTELWWLYLTPAASEDTIIGFLGQPVTLPCHYLSWSQSRNSMCWGKGSCPNSKCNAELLRTDGTRIISRKSTKYTLLGKVQFGEVSLTISNTNRGDSGVYCCRIEVPGWFNDVKKNVRLELRRATTTKKPTTTTRPTTTPYVTTTTPELLPTTVMTTSVLPTTTPPQTLATTAFSTAVTTCPSTTPGSFSQETTKGSAFTTESETLPASNHSQRSMMTISTDIAVLRPTGSNPGILPSTSQLTTQKTTLTTSESLQKTTKSHQINSRQTILIIACCVGFVLMVLLFLAFLTKFRGFCFICYKTAQRLVFKDHPQGTEPDMYKYDAYLCFSSKDFTWVQNALLKHLDTQYSDQNRFNLCFEERDFVPGENRIANIQDAIWNSRKIVCLVSRHFLRDGWCLEAFSYAQGRCLSDLNSALIMVVVGSLSQYQLMKHQSIRGFVQKQQYLRWPEDFQDVGWFLHKLSQQILKKEKEKKKDNNIPLQTVATIS
modifications: CER19, amino acids 1-22 are signal peptide
B4: CER21: Chimeric engulfment receptor: Tim4 binding, Tim4 transmembrane, TLR8 signaling; SEQ ID NO: 96 (protein)
chain: MSKGLLLLWLVTELWWLYLTPAASEDTIIGFLGQPVTLPCHYLSWSQSRNSMCWGKGSCPNSKCNAELLRTDGTRIISRKSTKYTLLGKVQFGEVSLTISNTNRGDSGVYCCRIEVPGWFNDVKKNVRLELRRATTTKKPTTTTRPTTTPYVTTTTPELLPTTVMTTSVLPTTTPPQTLATTAFSTAVTTCPSTTPGSFSQETTKGSAFTTESETLPASNHSQRSMMTISTDIAVLRPTGSNPGILPSTSQLTTQKTTLTTSESLQKTTKSHQINSRQTILIIACCVGFVLMVLLFLAFLHHLFYWDVWFIYNVCLAKVKGYRSLSTSQTFYDAYISYDTKDASVTDWVINELRYHLEESRDKNVLLCLEERDWDPGLAIIDNLMQSINQSKKTVFVLTKKYAKSWNFKTAFYLALQRLMDENMDVIIFILLEPVLQHSQYLRLRQRICKSSILQWPDNPKAEGLFWQTLRNVVLTENDSRYNNMYVDSIKQY
modifications: CER21, amino acids 1-22 are signal peptide
B5: CER23: Chimeric engulfment receptor: Tim4 binding, Tim4 transmembrane, TLR9 signaling; SEQ ID NO: 116 (protein)
chain: MSKGLLLLWLVTELWWLYLTPAASEDTIIGFLGQPVTLPCHYLSWSQSRNSMCWGKGSCPNSKCNAELLRTDGTRIISRKSTKYTLLGKVQFGEVSLTISNTNRGDSGVYCCRIEVPGWFNDVKKNVRLELRRATTTKKPTTTTRPTTTPYVTTTTPELLPTTVMTTSVLPTTTPPQTLATTAFSTAVTTCPSTTPGSFSQETTKGSAFTTESETLPASNHSQRSMMTISTDIAVLRPTGSNPGILPSTSQLTTQKTTLTTSESLQKTTKSHQINSRQTILIIACCVGFVLMVLLFLAFLGWDLWYCFHLCLAWLPWRGRQSGRDEDALPYDAFVVFDKTQSAVADWVYNELRGQLEECRGRWALRLCLEERDWLPGKTLFENLWASVYGSRKTLFVLAHTDRVSGLLRASFLLAQQRLLEDRKDVVVLVILSPDGRRSRYVRLRQRLCRQSVLLWPHQPSGQRSFWAQLGMALTRDNHHFYNRNFCQGPTAE
modifications: CER23, amino acids 1-22 are signal peptide
B6: CER26: Chimeric engulfment receptor: Tim4 binding, Tim4 transmembrane, TLR1 signaling; SEQ ID NO: 118 (protein)
chain: MSKGLLLLWLVTELWWLYLTPAASEDTIIGFLGQPVTLPCHYLSWSQSRNSMCWGKGSCPNSKCNAELLRTDGTRIISRKSTKYTLLGKVQFGEVSLTISNTNRGDSGVYCCRIEVPGWFNDVKKNVRLELRRATTTKKPTTTTRPTTTPYVTTTTPELLPTTVMTTSVLPTTTPPQTLATTAFSTAVTTCPSTTPGSFSQETTKGSAFTTESETLPASNHSQRSMMTISTDIAVLRPTGSNPGILPSTSQLTTQKTTLTTSESLQKTTKSHQINSRQTILIIACCVGFVLMVLLFLAFLSYLDLPWYLRMVCQWTQTRRRARNIPLEELQRNLQFHAFISYSGHDSFWVKNELLPNLEKEGMQICLHERNFVPGKSIVENIITCIEKSYKSIFVLSPNFVQSEWCHYELYFAHHNLFHEGSNSLILILLEPIPQYSIPSSYHKLKSLMARRTYLEWPKEKSKRGLFWANLRAAINIKLTEQAKK
modifications: CER26, amino acids 1-22 are signal peptide

The molecules below were run on SCC152 cells (assay: Elimination of GFP-expressing SCC152 target cells over time (quantification and time lapse imaging)). Settings: 96-well co-culture, CD8+/E7 TCR + CD4+/CER + SCC152 1:1:1, compared to control.
Format: cell-based
Protocol: Target SCC152 cells were co-cultured with CD8+ T cells transduced with HPV E7 TCR+CD4+ T cells transduced with a selected CER, or controls (CD8+ T cell transduced with HPV E7 TCR+CD4+ transduced control) at a 1:1:1 ratio. The number of target cells were quantified using imaging software. 0 hours, 24 hours, and 48 hours are shown from left to right.
(§1) FIG. 21 is time lapse imaging from 96-well co-culture experiments comprising CD8+ T cells transduced with HPV16 E7 TCR+CD4+ T cells transduced with CER5, CER17 or CER19 incubated with SCC152 target cells at a 1:1:1 ratio. SCC152 HPV+ target cells were quantified using automated cell counting software.
as §1, with “22” for “21”, “CER21, CER23” for “CER5, CER17”, “CER26” for “CER19”
as §1, with “23” for “21”, “CER103b, CER104” for “CER5, CER17”, “CER105” for “CER19”
as §1, with “24” for “21”, “CER106, CER116” for “CER5, CER17”, “CER27” for “CER19”
FIG. 57 is a bar graph showing quantification of loss of SCC152 HPV16+ target cells over time during co-culture assays. SCC152 cells were transduced with green fluorescent protein (GFP) and co-cultured with CD8+ T cells transduced with HPV16 E7 TCR and CD4+ T cells transduced with a selected CER (CER29, CER30, CER110, CER112, CER113, CER114, CER116, or CER117) or a CD4+ T cell control at a 1:1:1 ratio (CD8:CD4:target cell). The number of target cells was quantified at various time points during co-culture (0 hrs, 12 hrs, 24 hrs, and 36 hrs) using fluorescence microscopy and imaging software.
(§2) FIG. 58 are fluorescence micrograph images of the co-culture assay described in FIG. 57, showing clearance of the SCC152 cells (pink) as co-culture with CD8+ T cells transduced with HPV16 E7 TCR and CD4+ T cells transduced with a selected CER (columns from left to right: control, CER29, CER30, CER110, or CER112) progresses (rows from top to bottom: 0 hrs, 12 hrs, 24 hrs, and 36 hrs).
as §2, with “59” for “58”, “CER113, CER114, CER116,” for “CER29, CER30, CER110,”, “CER117)” for “CER112)”
(§3) Elimination of target SCC152 cells was also detected by quantifying green fluorescent protein expression by SCC152 cells over time (0 hr, 24 hr, 48 hr) during co-incubation with CD8+ T cells transduced with HPV16 E7 specific TCR+ CD4 T cells transduced with selected CER (see, FIG. 20).
as §3, with “hr, 12 hr,” for “hr,”, “hr, 36” for “hr, 48”, “TCR+ CD4+” for “TCR+ CD4”, “CER (CER29, CER30, CER110, CER112, CER113, CER114, CER116, or CER117)” for “CER”, “FIG. 57).” for “FIG. 20).”
In the case of B1, the “number of SCC152 cells in time lapse imaging” value (from here on “number of SCC152 cells”) is reported as “decreasing in numbers over time”.
With B2 the “number of SCC152 cells” value was “decreasing in numbers over time”.
With B3 the “number of SCC152 cells” value was “decreasing in numbers over time”.
For B4, the “number of SCC152 cells” value was “decreasing in numbers over time”.
B5 was tested, and the “number of SCC152 cells” value was “decreasing in numbers over time”.
With B6 the “number of SCC152 cells” value was “decreasing in numbers over time”.
